Results from PMC9482650, “Quantitative fragmentomics allow affinity mapping of interactomes” (Nature Communications, 2022).

These binders were tested against GRIP2_7, Q9C0E4 (assay: holdup assay). Settings: plain residues with an end cap or a label only (N-terminal biotin on a linker: ado-ado).
Set-up: key: below the threshold = too weak to quantify, mostly under pKd 3.1 to 4

Sequence of GRIP2_7, Q9C0E4 (Q9C0E4 934-1023): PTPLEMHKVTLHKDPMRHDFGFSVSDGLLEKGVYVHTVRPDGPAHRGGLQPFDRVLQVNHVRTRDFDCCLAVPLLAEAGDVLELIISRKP

Binder	pKd
PPGKHLVTEV [KCNA7, Q96RP8]	below the threshold
ARESQKVSHV [FAM110B, Q8TC76]	below the threshold

The binders below were run against CASK, O14936 (assay: holdup assay). Settings: plain residues with an end cap or a label only (N-terminal biotin on a linker: ado-ado).
Set-up: key: below the threshold = too weak to quantify, mostly under pKd 3.1 to 4

Sequence of CASK, O14936 (O14936 487-570): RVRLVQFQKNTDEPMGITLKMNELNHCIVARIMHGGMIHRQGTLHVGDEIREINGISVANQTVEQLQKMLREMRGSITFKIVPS

Binder	pKd
PPGKHLVTEV [KCNA7, Q96RP8]	below the threshold
ARESQKVSHV [FAM110B, Q8TC76]	below the threshold

Each binder was assayed against T1, SIPA1L2, Q9P2F8 (assay: holdup assay). Settings: plain residues with an end cap or a label only (N-terminal biotin on a linker: ado-ado).
T1 sequence (Q9P2F8 945-1036, limits assumed, looked up): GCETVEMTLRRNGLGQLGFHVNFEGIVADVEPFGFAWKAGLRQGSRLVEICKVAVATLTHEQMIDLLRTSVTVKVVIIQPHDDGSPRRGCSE
Set-up: key: below the threshold = too weak to quantify, mostly under pKd 3.1 to 4

Binder	pKd
PPGKHLVTEV [KCNA7, Q96RP8]	below the threshold
ARESQKVSHV [FAM110B, Q8TC76]	below the threshold

What follows are binders tested against FRMPD3, Q5JV73 (assay: holdup assay). Settings: plain residues with an end cap or a label only (N-terminal biotin on a linker: ado-ado).
Set-up: key: below the threshold = too weak to quantify, mostly under pKd 3.1 to 4

Sequence of FRMPD3, Q5JV73 (Q5JV73 12-100): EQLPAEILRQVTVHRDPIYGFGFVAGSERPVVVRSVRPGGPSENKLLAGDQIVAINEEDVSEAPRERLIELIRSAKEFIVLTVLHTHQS

Binder	pKd
PPGKHLVTEV [KCNA7, Q96RP8]	below the threshold
ARESQKVSHV [FAM110B, Q8TC76]	below the threshold

What follows are binders tested against T2, DFNB31_1, Q9P202 (assay: holdup assay). Settings: plain residues with an end cap or a label only (N-terminal biotin on a linker: ado-ado).
T2 sequence (Q9P202 135-233, limits assumed, looked up): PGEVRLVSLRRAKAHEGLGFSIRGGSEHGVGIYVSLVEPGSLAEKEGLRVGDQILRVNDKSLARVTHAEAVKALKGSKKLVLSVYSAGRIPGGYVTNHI
Set-up: key: below the threshold = too weak to quantify, mostly under pKd 3.1 to 4

Binder	pKd
PPGKHLVTEV [KCNA7, Q96RP8]	below the threshold
ARESQKVSHV [FAM110B, Q8TC76]	3.62

What follows are binders tested against MAGI1_2, Q96QZ7 (assay: holdup assay). Settings: plain residues with an end cap or a label only (N-terminal biotin on a linker: ado-ado).
Set-up: key: below the threshold = too weak to quantify, mostly under pKd 3.1 to 4

Sequence of MAGI1_2, Q96QZ7 (Q96QZ7 456-580): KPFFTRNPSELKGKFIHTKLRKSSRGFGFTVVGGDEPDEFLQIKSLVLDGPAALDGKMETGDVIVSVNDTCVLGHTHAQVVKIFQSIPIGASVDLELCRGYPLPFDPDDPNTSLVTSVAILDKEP

Binder	pKd
PPGKHLVTEV [KCNA7, Q96RP8]	4.24
ARESQKVSHV [FAM110B, Q8TC76]	4.09

What follows are binders tested against T3, ARHGEF11, O15085 (assay: holdup assay). Settings: plain residues with an end cap or a label only (N-terminal biotin on a linker: ado-ado).
T3 sequence (O15085 42-136, limits assumed, looked up): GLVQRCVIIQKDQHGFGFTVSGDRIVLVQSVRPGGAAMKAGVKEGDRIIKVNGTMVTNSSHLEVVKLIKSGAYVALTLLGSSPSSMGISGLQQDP
Set-up: key: below the threshold = too weak to quantify, mostly under pKd 3.1 to 4

Binder	pKd
PPGKHLVTEV [KCNA7, Q96RP8]	5.2
ARESQKVSHV [FAM110B, Q8TC76]	4.19

The binders below were run against T4, SNTG2, Q9NY99 (assay: holdup assay). Settings: plain residues with an end cap or a label only (N-terminal biotin on a linker: ado-ado).
T4 sequence (Q9NY99 68-166, limits assumed, looked up): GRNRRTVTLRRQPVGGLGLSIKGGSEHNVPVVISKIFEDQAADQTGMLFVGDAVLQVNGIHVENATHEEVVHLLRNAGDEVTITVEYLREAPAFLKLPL
Set-up: key: below the threshold = too weak to quantify, mostly under pKd 3.1 to 4

Binder	pKd
PPGKHLVTEV [KCNA7, Q96RP8]	below the threshold
ARESQKVSHV [FAM110B, Q8TC76]	4.08

Each binder was assayed against T5, RADIL, Q96JH8 (assay: holdup assay). Settings: plain residues with an end cap or a label only (N-terminal biotin on a linker: ado-ado).
T5 sequence (Q96JH8 971-1071, limits assumed, looked up): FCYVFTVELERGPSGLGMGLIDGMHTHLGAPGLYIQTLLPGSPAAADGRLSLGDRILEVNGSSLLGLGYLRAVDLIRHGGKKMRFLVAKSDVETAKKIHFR
Set-up: key: below the threshold = too weak to quantify, mostly under pKd 3.1 to 4

Binder	pKd
PPGKHLVTEV [KCNA7, Q96RP8]	4.52
ARESQKVSHV [FAM110B, Q8TC76]	4.55

The binders below were run against Inadl_5, Q8NI35 (assay: holdup assay). Settings: plain residues with an end cap or a label only (N-terminal biotin on a linker: ado-ado).
Set-up: key: below the threshold = too weak to quantify, mostly under pKd 3.1 to 4

Sequence of Inadl_5, Q8NI35 (Q8NI35 673-780): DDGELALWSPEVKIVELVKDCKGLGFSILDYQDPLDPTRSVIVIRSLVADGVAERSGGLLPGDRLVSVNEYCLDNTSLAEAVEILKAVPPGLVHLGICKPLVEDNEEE

Binder	pKd
PPGKHLVTEV [KCNA7, Q96RP8]	below the threshold
ARESQKVSHV [FAM110B, Q8TC76]	below the threshold

Each binder was assayed against T6, MPP2, Q14168 (assay: holdup assay). Settings: plain residues with an end cap or a label only (N-terminal biotin on a linker: ado-ado).
T6 sequence (Q14168 180-250, limits assumed, looked up): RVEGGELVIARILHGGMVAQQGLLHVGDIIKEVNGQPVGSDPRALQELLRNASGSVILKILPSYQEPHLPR
Set-up: key: below the threshold = too weak to quantify, mostly under pKd 3.1 to 4

Binder	pKd
PPGKHLVTEV [KCNA7, Q96RP8]	below the threshold
ARESQKVSHV [FAM110B, Q8TC76]	below the threshold

The binders below were run against DLG5_1, Q8TDM6 (assay: holdup assay). Settings: plain residues with an end cap or a label only (N-terminal biotin on a linker: ado-ado).
Set-up: key: below the threshold = too weak to quantify, mostly under pKd 3.1 to 4

Sequence of DLG5_1, Q8TDM6 (Q8TDM6 617-713): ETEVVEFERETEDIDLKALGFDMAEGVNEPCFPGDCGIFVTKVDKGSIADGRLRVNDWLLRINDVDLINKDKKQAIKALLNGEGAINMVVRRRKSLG

Binder	pKd
PPGKHLVTEV [KCNA7, Q96RP8]	below the threshold
ARESQKVSHV [FAM110B, Q8TC76]	below the threshold

These binders were tested against DLG1_2, Q12959 (assay: holdup assay). Settings: plain residues with an end cap or a label only (N-terminal biotin on a linker: ado-ado).
Set-up: key: below the threshold = too weak to quantify, mostly under pKd 3.1 to 4

Sequence of DLG1_2, Q12959 (Q12959 314-412): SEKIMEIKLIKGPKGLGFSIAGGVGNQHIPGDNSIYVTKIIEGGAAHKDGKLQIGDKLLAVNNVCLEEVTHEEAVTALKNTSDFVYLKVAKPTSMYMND

Binder	pKd
PPGKHLVTEV [KCNA7, Q96RP8]	5.1
ARESQKVSHV [FAM110B, Q8TC76]	4.68

The binders below were run against MAST1, Q9Y2H9 (assay: holdup assay). Settings: plain residues with an end cap or a label only (N-terminal biotin on a linker: ado-ado).
Set-up: key: below the threshold = too weak to quantify, mostly under pKd 3.1 to 4

Sequence of MAST1, Q9Y2H9 (Q9Y2H9 962-1065): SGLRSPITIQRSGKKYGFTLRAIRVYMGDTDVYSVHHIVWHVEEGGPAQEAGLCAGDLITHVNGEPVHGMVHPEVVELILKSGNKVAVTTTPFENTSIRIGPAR

Binder	pKd
PPGKHLVTEV [KCNA7, Q96RP8]	4.58
ARESQKVSHV [FAM110B, Q8TC76]	4.13

Each binder was assayed against T7, GRIP1_3, Q9Y3R0 (assay: holdup assay). Settings: plain residues with an end cap or a label only (N-terminal biotin on a linker: ado-ado).
T7 sequence (Q9Y3R0 247-346, limits assumed, looked up): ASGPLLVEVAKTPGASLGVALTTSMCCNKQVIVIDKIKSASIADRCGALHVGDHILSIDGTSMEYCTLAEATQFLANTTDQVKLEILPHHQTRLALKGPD
Set-up: key: below the threshold = too weak to quantify, mostly under pKd 3.1 to 4

Binder	pKd
PPGKHLVTEV [KCNA7, Q96RP8]	below the threshold
ARESQKVSHV [FAM110B, Q8TC76]	below the threshold

The binders below were run against GIPC2, Q8TF65 (assay: holdup assay). Settings: plain residues with an end cap or a label only (N-terminal biotin on a linker: ado-ado).
Set-up: key: below the threshold = too weak to quantify, mostly under pKd 3.1 to 4

Sequence of GIPC2, Q8TF65 (Q8TF65 112-203): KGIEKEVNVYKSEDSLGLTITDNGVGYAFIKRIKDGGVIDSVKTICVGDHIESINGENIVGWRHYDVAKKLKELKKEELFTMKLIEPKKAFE

Binder	pKd
PPGKHLVTEV [KCNA7, Q96RP8]	below the threshold
ARESQKVSHV [FAM110B, Q8TC76]	below the threshold

The binders below were run against T8, LIN7C, Q9NUP9 (assay: holdup assay). Settings: plain residues with an end cap or a label only (N-terminal biotin on a linker: ado-ado).
T8 sequence (Q9NUP9 88-185, limits assumed, looked up): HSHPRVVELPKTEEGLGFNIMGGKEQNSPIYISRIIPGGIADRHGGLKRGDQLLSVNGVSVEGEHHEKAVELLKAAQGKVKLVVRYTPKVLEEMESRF
Set-up: key: below the threshold = too weak to quantify, mostly under pKd 3.1 to 4

Binder	pKd
PPGKHLVTEV [KCNA7, Q96RP8]	below the threshold
ARESQKVSHV [FAM110B, Q8TC76]	below the threshold

Each binder was assayed against MAGI2_4, Q86UL8 (assay: holdup assay). Settings: plain residues with an end cap or a label only (N-terminal biotin on a linker: ado-ado).
Set-up: key: below the threshold = too weak to quantify, mostly under pKd 3.1 to 4

Sequence of MAGI2_4, Q86UL8 (Q86UL8 772-865): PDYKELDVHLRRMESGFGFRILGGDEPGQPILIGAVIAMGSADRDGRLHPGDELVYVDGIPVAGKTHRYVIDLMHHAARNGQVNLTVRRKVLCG

Binder	pKd
PPGKHLVTEV [KCNA7, Q96RP8]	4.48
ARESQKVSHV [FAM110B, Q8TC76]	below the threshold

The binders below were run against TJP1_2, Q07157 (assay: holdup assay). Settings: plain residues with an end cap or a label only (N-terminal biotin on a linker: ado-ado).
Set-up: key: below the threshold = too weak to quantify, mostly under pKd 3.1 to 4

Sequence of TJP1_2, Q07157 (Q07157 181-274): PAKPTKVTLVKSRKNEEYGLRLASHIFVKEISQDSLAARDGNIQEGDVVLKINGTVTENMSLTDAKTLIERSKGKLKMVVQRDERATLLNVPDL

Binder	pKd
PPGKHLVTEV [KCNA7, Q96RP8]	below the threshold
ARESQKVSHV [FAM110B, Q8TC76]	below the threshold

The binders below were run against T9, LNX2_3, Q8N448 (assay: holdup assay). Settings: plain residues with an end cap or a label only (N-terminal biotin on a linker: ado-ado).
T9 sequence (Q8N448 463-564, limits assumed, looked up): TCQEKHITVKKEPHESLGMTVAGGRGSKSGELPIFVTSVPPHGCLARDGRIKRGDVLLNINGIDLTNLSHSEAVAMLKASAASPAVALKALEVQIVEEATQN
Set-up: key: below the threshold = too weak to quantify, mostly under pKd 3.1 to 4

Binder	pKd
PPGKHLVTEV [KCNA7, Q96RP8]	below the threshold
ARESQKVSHV [FAM110B, Q8TC76]	below the threshold

The binders below were run against T10, DFNB31_2, Q9P202 (assay: holdup assay). Settings: plain residues with an end cap or a label only (N-terminal biotin on a linker: ado-ado).
T10 sequence (Q9P202 274-371, limits assumed, looked up): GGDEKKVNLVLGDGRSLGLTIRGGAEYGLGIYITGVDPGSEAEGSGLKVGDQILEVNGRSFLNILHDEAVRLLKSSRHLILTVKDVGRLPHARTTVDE
Set-up: key: below the threshold = too weak to quantify, mostly under pKd 3.1 to 4

Binder	pKd
PPGKHLVTEV [KCNA7, Q96RP8]	below the threshold
ARESQKVSHV [FAM110B, Q8TC76]	3.9

Each binder was assayed against T11, TJP3_3, O95049 (assay: holdup assay). Settings: plain residues with an end cap or a label only (N-terminal biotin on a linker: ado-ado).
T11 sequence (O95049 375-456, limits assumed, looked up): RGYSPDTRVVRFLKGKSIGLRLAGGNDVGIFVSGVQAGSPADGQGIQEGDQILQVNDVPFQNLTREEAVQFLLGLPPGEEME
Set-up: key: below the threshold = too weak to quantify, mostly under pKd 3.1 to 4

Binder	pKd
PPGKHLVTEV [KCNA7, Q96RP8]	below the threshold
ARESQKVSHV [FAM110B, Q8TC76]	below the threshold

The binders below were run against MAGI2_2, Q86UL8 (assay: holdup assay). Settings: plain residues with an end cap or a label only (N-terminal biotin on a linker: ado-ado).
Set-up: key: below the threshold = too weak to quantify, mostly under pKd 3.1 to 4

Sequence of MAGI2_2, Q86UL8 (Q86UL8 410-522): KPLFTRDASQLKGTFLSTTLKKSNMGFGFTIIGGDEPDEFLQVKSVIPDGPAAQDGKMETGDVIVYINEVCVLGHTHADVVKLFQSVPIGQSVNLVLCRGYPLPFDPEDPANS

Binder	pKd
PPGKHLVTEV [KCNA7, Q96RP8]	4.32
ARESQKVSHV [FAM110B, Q8TC76]	4.87

These binders were tested against TJP2_1, Q9UDY2 (assay: holdup assay). Settings: plain residues with an end cap or a label only (N-terminal biotin on a linker: ado-ado).
Set-up: key: below the threshold = too weak to quantify, mostly under pKd 3.1 to 4

Sequence of TJP2_1, Q9UDY2 (Q9UDY2 24-128): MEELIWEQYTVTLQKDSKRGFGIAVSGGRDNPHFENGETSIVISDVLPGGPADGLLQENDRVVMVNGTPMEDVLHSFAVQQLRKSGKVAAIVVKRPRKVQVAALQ

Binder	pKd
PPGKHLVTEV [KCNA7, Q96RP8]	3.6
ARESQKVSHV [FAM110B, Q8TC76]	3.87

These binders were tested against T12, PARD3B_1, Q8TEW8 (assay: holdup assay). Settings: plain residues with an end cap or a label only (N-terminal biotin on a linker: ado-ado).
T12 sequence (Q8TEW8 196-299, limits assumed, looked up): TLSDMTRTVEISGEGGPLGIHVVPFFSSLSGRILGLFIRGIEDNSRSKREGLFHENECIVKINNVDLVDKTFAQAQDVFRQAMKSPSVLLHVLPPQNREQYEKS
Set-up: key: below the threshold = too weak to quantify, mostly under pKd 3.1 to 4

Binder	pKd
PPGKHLVTEV [KCNA7, Q96RP8]	below the threshold
ARESQKVSHV [FAM110B, Q8TC76]	below the threshold

What follows are binders tested against FRMPD2_1, Q68DX3 (assay: holdup assay). Settings: plain residues with an end cap or a label only (N-terminal biotin on a linker: ado-ado).
Set-up: key: below the threshold = too weak to quantify, mostly under pKd 3.1 to 4

Sequence of FRMPD2_1, Q68DX3 (Q68DX3 770-861): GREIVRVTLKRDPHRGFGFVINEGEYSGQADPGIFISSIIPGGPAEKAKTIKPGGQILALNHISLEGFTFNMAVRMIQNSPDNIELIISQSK

Binder	pKd
PPGKHLVTEV [KCNA7, Q96RP8]	below the threshold
ARESQKVSHV [FAM110B, Q8TC76]	below the threshold
